The results in this text go back to paper PMC3527510, “Bin2 Is a Membrane Sculpting N-BAR Protein That Influences Leucocyte Podosomes, Motility and Phagocytosis” (PLoS ONE, 2012).

Sequences and labels used below:
B1: Human α-PIX SH3 domain (amino acids 160-222) (domain or fragment, UniProt Q15052 160-222, looked up)
chain: SHQLIVKARFNFKQTNEDELSVCKGDIIYVTRVEEGGWWEGTLNGRTGWFPSNYVREIKSSER
notes: α-PIX, human, SH3 domain, residues 160-222; Cloned into pGEX-4T-2
B2: GST-hBin2-CT (C-terminal region of human Bin2, amino acids 237-565) (domain or fragment, UniProt Q9UBW5 237-565, looked up)
chain: KLEKQHSNKVFVVKGLSSSSRRSLVISPPVRTATVSSPLTSPTSPSTLSLKSESESVSATEDLAPDAAQGEDNSEIKELLEEEEIEKEGSEASSSEEDEPLPACNGPAQAQPSPTTERAKSQEEVLPSSTTPSPGGALSPSGQPSSSATEVVLRTRTASEGSEQPKKRASIQRTSAPPSRPPPPRATASPRPSSGNIPSSPTASGGGSPTSPRASLGTGTASPRTSLEVSPNPEPPEKPVRTPEAKENENIHNQNPEELCTSPTLMTSQVASEPGEAKKMEDKEKDNKLISANSSEGQDQLQVSMVPENNNLTAPEPQEEVSTSENPQL
notes: Cloned into Nde1/Not1 sites of pGEX-4T-2; also called GST-Bin2-CT; BCT; source: E. coli DH5α, purified (glutathione sepharose, eluted with glutathione, dialysed)
B3: Human Bin2 BAR domain (residues 20-238; Bin2 N-BAR Δ19) (domain or fragment, UniProt Q9UBW5 20-238, looked up)
chain: KFSRAQEKVLQKLGKAVETKDERFEQSASNFYQQQAEGHKLYKDLKNFLSAVKVMHESSKRVSETLQEIYSSEWDGHEELKAIVWNNDLLWEDYEEKLADQAVRTMEIYVAQFSEIKERIAKRGRKLVDYDSARHHLEAVQNAKKKDEAKTAKAEEEFNKAQTVFEDLNQELLEELPILYNSRIGCYVTIFQNISNLRDVFYREMSKLNHNLYEVMSKL
notes: Bridging integrator-2 (Bin2, BRAP1), human, residues 20-238; human Bin2 has 565 amino acids; the final model holds residues 37-238; Cloned into BamH1/Xho1 sites of pGEX-4T-2; also called hBin2 BAR; Bin2-NTΔ19; source: E. coli DH5α, purified (glutathione sepharose, thrombin cleavage, HiTrap Q, gel filtration)
B4: Rat Bin2 N-BAR domain (1-238), wild type (domain or fragment, UniProt Q68FR2 1-238, looked up)
chain: MAEGKAGGAAGLFAKQMQKKFSRAQEKVLQKLGKTVETKDERFEQSASNFYQQQAEGHRLYKDLKNFLSAVKVMRESSKRVSETLQEIYNSDWDGHEDLKAIVGNNDLLWEDYEEKLADQALRTMENYVSQFSEVKERIAKRGRKLVDYDSARHHLEAVQNAKKKDEAKMAKAEEDFSKAQVVFEDLNQELLEELPVLYNSRIGCYVTVFQNISNLRDVFYREMSKLNHSLYEVMSKL
notes: Bridging integrator-2 (Bin2), rat, residues 1-238; also called WT rBin2 N-BAR
B5: Rat Bin2 N-BAR V81R,S214E mutant (domain or fragment, UniProt Q68FR2 1-238, looked up)
chain: B4 chain with V81R, S214E
notes: also called rBin2 N-BAR V81R,S214E; dimerization mutant
B6: Human Bin2 N-BAR domain (1-238) (domain or fragment, UniProt Q9UBW5 1-238, looked up)
chain: MAEGKAGGAAGLFAKQVQKKFSRAQEKVLQKLGKAVETKDERFEQSASNFYQQQAEGHKLYKDLKNFLSAVKVMHESSKRVSETLQEIYSSEWDGHEELKAIVWNNDLLWEDYEEKLADQAVRTMEIYVAQFSEIKERIAKRGRKLVDYDSARHHLEAVQNAKKKDEAKTAKAEEEFNKAQTVFEDLNQELLEELPILYNSRIGCYVTIFQNISNLRDVFYREMSKLNHNLYEVMSKL
notes: Bridging integrator-2 (Bin2, BRAP1), human, residues 1-238; also called hBin2 N-BAR; source: E. coli DH5α, purified (glutathione sepharose, thrombin cleavage, HiTrap Q, gel filtration)

The target in series [1] is B2. As to the kind of experiment: pull-down; 10 µg GST fusion or GST on glutathione beads with rising amounts of purified prey, 60 min; 20 mM HEPES pH 7.5, 150 mM NaCl, 1 mM DTT, 0.1% Triton X-100; SDS-PAGE, Coomassie. Conditions: both partners purified.
In series [2] the target is T1, GST-hBin2-CT (C-terminal region of human Bin2, amino acids 237-565) (Homo sapiens (Human), UniProt Q9UBW5).
T1 chain: B2 chain
In words: GST pull-down, Coomassie.

Series [3] concerns the target T2, Full-length rat Endophilin A1 (rat, UniProt O35179 1-352).
T2 construct: Endophilin A1, rat, full length; Cloned into pGEX-6P-2; also called rEndoA1; EndoA1
As to the kind of experiment: pull-down; 10 µg GST fusion or GST on glutathione beads with rising amounts of purified prey, 60 min; 20 mM HEPES pH 7.5, 150 mM NaCl, 1 mM DTT, 0.1% Triton X-100; SDS-PAGE, Coomassie. Conditions: both partners purified.

Series [4] concerns the molecule itself. As to the kind of experiment: crystal structure; hanging-drop crystals in 10% MPD, 7% PEG4000, 0.1 M sodium citrate pH 5.3, 20°C; MIRAS phasing; two molecules in the asymmetric unit.
Series [5] deals with the molecule itself. As to the kind of experiment: SEC; gel filtration profiles of WT rBin2 N-BAR against the V81R,S214E mutant, with molecular weight standards.
Series [6] concerns the molecule itself. As to the kind of experiment: AUC; equilibrium sedimentation, 20°C, 20,000, 30,000 and 40,000 rpm; 20 mM Tris, 200 mM NaCl, 0.1 mM DTT; dimer to monomers.

Residue numbers refer to the chain shown, from its start. Names may count otherwise.

T2 sequence (O35179 whole entry): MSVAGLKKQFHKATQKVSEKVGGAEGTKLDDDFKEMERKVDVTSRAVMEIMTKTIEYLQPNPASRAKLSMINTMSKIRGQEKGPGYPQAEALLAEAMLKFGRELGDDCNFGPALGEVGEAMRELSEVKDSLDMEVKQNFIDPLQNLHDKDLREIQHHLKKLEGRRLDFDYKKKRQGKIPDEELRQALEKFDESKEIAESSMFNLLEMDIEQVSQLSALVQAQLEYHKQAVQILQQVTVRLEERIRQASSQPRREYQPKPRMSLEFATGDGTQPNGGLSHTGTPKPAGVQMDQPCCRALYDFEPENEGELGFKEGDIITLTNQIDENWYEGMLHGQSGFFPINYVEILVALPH

Turning to B1, the binding result in series [1] and in series [2] was “binds” each time.
As for B2, the binding result in series [3] is given as “binds”.
Turning to B3, the binding result in series [4] is “binds”.
Regarding B4, the binding result in series [5] is on record as “binds”.
For the molecule B5, the binding result in series [5] was “binds”.
In series [6], B6 returned a Kd of 7 µM.
